Reference: US10435456B2, “Compositions and methods for increasing the expression and signalling of proteins on cell surfaces” (THE JOHNS HOPKINS UNIVERSITY, priority 2014, dated 2019)
“Also recorded” adds a separate entry of the source.

T1: mOREG (Mus musculus, UniProt Q920P2)
T1 construct: The mOR-EG full-length construct, containing N-terminal Flag/Rho tags, was a kind gift from Kazushige Touhara; only in the L-EG and L-R-EG constructs) (N, cleaved yes); expressed in transfected cells; host or cells: HEK293T
T1 sequence (Q920P2 1-313): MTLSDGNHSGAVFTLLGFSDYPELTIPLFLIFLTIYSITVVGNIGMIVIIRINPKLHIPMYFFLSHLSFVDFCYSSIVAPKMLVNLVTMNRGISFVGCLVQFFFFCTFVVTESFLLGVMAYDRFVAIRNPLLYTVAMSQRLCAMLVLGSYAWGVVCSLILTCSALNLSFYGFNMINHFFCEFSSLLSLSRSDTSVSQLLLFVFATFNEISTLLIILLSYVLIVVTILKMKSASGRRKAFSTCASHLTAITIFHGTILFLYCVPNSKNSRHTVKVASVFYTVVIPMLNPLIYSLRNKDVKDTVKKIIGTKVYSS

T2: Olfr691 (Mus musculus, UniProt Q8VGW5)
T2 sequence (Q8VGW5 1-322): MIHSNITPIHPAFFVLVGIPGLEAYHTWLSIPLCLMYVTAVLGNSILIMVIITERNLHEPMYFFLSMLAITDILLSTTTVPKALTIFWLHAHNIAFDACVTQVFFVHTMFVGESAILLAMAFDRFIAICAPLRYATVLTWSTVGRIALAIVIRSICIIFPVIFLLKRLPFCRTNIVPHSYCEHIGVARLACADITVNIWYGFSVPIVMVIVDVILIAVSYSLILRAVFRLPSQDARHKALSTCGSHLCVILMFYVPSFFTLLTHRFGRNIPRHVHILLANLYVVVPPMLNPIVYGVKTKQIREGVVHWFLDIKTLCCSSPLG

B1: hOR51E2: human olfactory receptor, Flag-tagged construct (protein, UniProt Q9H255 1-320, looked up)
Olfactory receptor 51E2: MSSCNFTHATFVLIGIPGLEKAHFWVGFPLLSMYVVAMFGNCIVVFIVRTERSLHAPMYLFLCMLAAIDLALSTSTMPKILALFWFDSREISFEACLTQMFFIHALSAIESTILLAMAFDRYVAICHPLRHAAVLNNTVTAQIGIVAVVRGSLFFFPLPLLIKRLAFCHSNVLSHSYCVHQDVMKLAYADTLPNVVYGLTAILLVMGVDVMFISLSYFLIIRTVLQLPSKSERAKAFGTCVSHIGVVLAFYVPLIGLSVVHRFGNSLHPIVRVVMGDIYLLLPPVINPIIYGAKTKQIRTRVLAMFKISCDKDLQAVGGK
modifications: Flag tag
notes: human olfactory receptor, Flag-tagged construct
B2: hOR52B2: human homologue of Olfr691, Flag-tagged construct (protein, UniProt Q96RD2 1-323, looked up)
Olfactory receptor 52B2: MSHTNVTIFHPAVFVLPGIPGLEAYHIWLSIPLCLIYITAVLGNSILIVVIVMERNLHVPMYFFLSMLAVMDILLSTTTVPKALAIFWLQAHNIAFDACVTQGFFVHMMFVGESAILLAMAFDRFVAICAPLRYTTVLTWPVVGRIALAVITRSFCIIFPVIFLLKRLPFCLTNIVPHSYCEHIGVARLACADITVNIWYGFSVPIVMVILDVILIAVSYSLILRAVFRLPSQDARHKALSTCGSHLCVILMFYVPSFFTLLTHHFGRNIPQHVHILLANLYVAVPPMLNPIVYGVKTKQIREGVAHRFFDIKTWCCTSPLGS
modifications: Flag tag
notes: human homologue of Olfr691, Flag-tagged construct

What was measured:
[1] = biological target: T1, mOREG; test: CRE luciferase reporter assay (Firefly:Renilla), mOREG constructs; assay type: cell-based, murine; details: Rho-mOREG, Lucy-mOREG, no RTP1S, 100-300 μM eugenol
Procedure: The luciferase assay was performed as previously described. Briefly, ORs were transfected into HEK293T cells along with constructs encoding for CREB-dependent luciferase (Firefly) and a constitutively expressed luciferase (Renilla). OR activation leads to a rise in cAMP which drives an increase in Firefly luciferase expression. Firefly activity is normalized to the activity of the Renilla luciferase to control for variation in cell number and transfection efficiency. Data were collected using a FLUOstar Omega automated platereader (BMG LabTech, Cary, N.C.). For some experiments, RTP1S was also transfected.
As mOREG is one of the ORs that reach the cell surface under every condition tested, we expressed the OR with and without the Lucy and Rho tags and assessed its response to eugenol.

[2] = biological target: T2, Olfr691; test: CRE luciferase reporter assay (Firefly:Renilla), Olfr691 constructs; details: 0.1-5 mM isovaleric acid
[3] = system: murine Gpr160; test: Surface expression of murine Gpr160; assay type: cell-based; details: HEK293T cells
[4] = system: human GPR160; test: Surface expression of human GPR160; assay type: cell-based; details: HEK293T cells
[5] = system: HEK293T cells; test: Surface immunocytochemistry of Flag-tagged olfactory receptor constructs; assay type: cell-based; set-up: key to OR surface expression (trafficking): −: No detectable OR surface expression; +: OR surface expression detected in the majority of fields of view (>90% of all fields of view); *: OR surface expression detected in a minority of fields of view (<50% of all fields of view); details: for OR surface expression (trafficking): HEK293T
Procedure: HEK293T cells were seeded onto 18-mm coverslips coated with poly-L-lysine and transfected with OR constructs with or without accessory proteins (Lipofectamine 2000, Invitrogen). Flag-tagged OR trafficking was assayed using surface immunocytochemistry, as previously described. Briefly, live, non-permeabilized cells at 4° C. were exposed to a rabbit polyclonal anti-Flag antibody in PBS with 0.1% BSA. Subsequently, cells were washed, fixed with 4% paraformaldehyde, permeabilized (0.3% Triton X-100) and then exposed to a mouse monoclonal (M2) anti-Flag antibody. As the external Flag epitope (surface Flag) epitope is ‘blocked’ after binding to the polyclonal Flag antibody, the monoclonal Flag antibody detects only the internal population of ORs. […] Fluorescent secondary antibodies reported the localization of the polyclonal and monoclonal Flag-tags. Cells were visualized for epifluorescence using a Zeiss Axiophot microscope (Thornwood, N.Y.). Images were taken with a CoolSnap Digita Camera (Photometrics, Tucson, Ariz.) and IP Labs software (Biovision, Exton, Pa.). For some experiments, a total of 0.8 μg of accessory plasmids (pcDNA3-RTP1S (modified from RTP1L, kind gift from S. Firestein, Columbia Univ.), pCMV Sport6-Ric8b (purchased from Open Biosystems), and pcDNA3.1-Gαolf (subcloned from a pGEMHE2 Gαolf construct, kind gift from S. Firestein, Columbia Univ.)) or 0.8 μg of an empty pcDNA4.1 vector (OR alone) were co-transfected along with 0.8 μg of the OR. In FIGS. 1 and 2, the immunofluorescent images shown in each row (OR, Rho-OR, Lucy-OR and Lucy-Rho-OR with and without accessory proteins) were transfected and processed simultaneously and image exposures remained constant for each OR. Images represent representative fields of view from at least 4 independent experiments. To assess OR surface expression, the entirety of each coverslip was systematically scanned and scored based on detectable surface immunofluorescence. A ‘+’ was scored for those ORs whose surface expression was detectable in >90% of all fields of view while ORs received an ‘*’ if surface expression was found in <50% of all fields of view. A complete lack of detectable surface expression was scored as a ‘−’. To quantitate cell surface expression using ImageJ (FIG. 14), the background was subtracted from the surface labeled Olfr691 images and the mean fluorescence intensity was measured. The mean intensity was normalized to the mean intensity of the corresponding binary nuclear image, to control for cell number.
ORs were cloned and co-expressed in HEK293T cells without Rho or Lucy tags (OR), with a Rho tag (Rho-OR), with the Lucy tag (Lucy-OR) or with both the Lucy and Rho tags (Lucy-Rho-OR) along with (or without) the chaperone proteins, RTP1S, Ric8b and Gαolf. The cells were then surface labeled with a Flag antibody to detect membrane-associated OR. Images were taken for each OR at equal exposure for all conditions. To assess OR surface expression, the entirety of each coverslip was systematically scanned and scored based on detectable surface immunofluorescence. A ‘+’ was scored for those ORs whose surface expression was detectable in >90% of all fields of view while ORs received an ‘*’ if surface expression was found in <50% of all fields of view. A complete lack of detectable surface expression was scored as a ‘−’.
Many ORs remain orphan receptors due to their inability to traffic in in vitro assays. To establish the trafficking ability of a varied group of ORs, we cloned 15 diverse ORs, the majority of which are orphan receptors which have not been previously reported to reach the cell surface. Live, non-permeabilized HEK 293T cells were surface labeled with a Flag antibody to detect membrane associated receptor and OR surface expression was scored based on detectable surface immunofluorescence. […]

[6] = column 1: OR (Flag tag only, no Rho or Lucy tag), chaperones none
[7] = column 2: OR (Flag tag only), with RTP1S, Ric8b, Gαolf
[8] = column 3: Rho-OR, chaperones none
[9] = column 4: Rho-OR, with RTP1S, Ric8b, Gαolf
[10] = column 5: Lucy-OR, chaperones none
[11] = column 6: Lucy-OR, with RTP1S, Ric8b, Gαolf
[12] = column 7: Lucy-Rho-OR, chaperones none
[13] = column 8: Lucy-Rho-OR, with RTP1S, Ric8b, Gαolf

Row | Molecule | OR surface expression (trafficking) [5, 6] | OR surface expression (trafficking) [5, 7] | OR surface expression (trafficking) [5, 8] | OR surface expression (trafficking) [5, 9] | OR surface expression (trafficking) [5, 10] | OR surface expression (trafficking) [5, 11] | OR surface expression (trafficking) [5, 12] | OR surface expression (trafficking) [5, 13] | further results
1 | C=CCc1ccc(O)c(OC)c1 [eugenol] |  |  |  |  |  |  |  |  | OR activation (Firefly:Renilla ratio) [1]: dose-dependent activation; also recorded: significantly activated
2 | CC(C)CC(=O)O [isovaleric acid] |  |  |  |  |  |  |  |  | OR activation (Firefly:Renilla ratio) ([2]; Lucy-Rho-Olfr691 with and without RTP1S): responded to isovaleric acid in a dose-dependent manner; OR activation (Firefly:Renilla ratio) ([2]; Rho-Olfr691 co-expressed with RTP1S): dose-dependent increase in the Firefly: Renilla ratio; OR activation (Firefly:Renilla ratio) ([2]; Rho-Olfr691 without RTP1S): not significantly activated at any concentration; also recorded: no concentrations of isovaleric acid activated R-691
3 | Lucy tag: 17-amino acid cleavable signal peptide from LRRC32, MRPQILLLLALLTLGLA (SEQ ID NO:3) (Amino acid sequence of Lucy tag) |  |  |  |  |  |  |  |  | surface expression of murine Gpr160 [3]: promotes surface expression; surface expression of human GPR160 [4]: promotes surface expression
4 | B1 | + (OR surface expression detected in the majority of fields of view (>90% of all fields of view)) | + (OR surface expression detected in the majority of fields of view (>90% of all fields of view)) | + (OR surface expression detected in the majority of fields of view (>90% of all fields of view)) | + (OR surface expression detected in the majority of fields of view (>90% of all fields of view)) | + (OR surface expression detected in the majority of fields of view (>90% of all fields of view)) | + (OR surface expression detected in the majority of fields of view (>90% of all fields of view)) | + (OR surface expression detected in the majority of fields of view (>90% of all fields of view)) | + (OR surface expression detected in the majority of fields of view (>90% of all fields of view)) | 
5 | B2 | − | − | − | − | + (OR surface expression detected in the majority of fields of view (>90% of all fields of view)) | + (OR surface expression detected in the majority of fields of view (>90% of all fields of view)) | + (OR surface expression detected in the majority of fields of view (>90% of all fields of view)) | + (OR surface expression detected in the majority of fields of view (>90% of all fields of view)) | surface trafficking, Rho-tagged vs Lucy-Rho-tagged OR, in words ([5]; no accessory proteins, 24 h transfection): traffic to the surface with but not without the Lucy tag
